# Values of other authors in publication PMC3901638.
# Target: PEDF-R (Homo sapiens) (UniProt Q96AD5)
# Assay: Surface Plasmon Resonance
# Sequence of UniProt Q96AD5 (Q96AD5 whole entry): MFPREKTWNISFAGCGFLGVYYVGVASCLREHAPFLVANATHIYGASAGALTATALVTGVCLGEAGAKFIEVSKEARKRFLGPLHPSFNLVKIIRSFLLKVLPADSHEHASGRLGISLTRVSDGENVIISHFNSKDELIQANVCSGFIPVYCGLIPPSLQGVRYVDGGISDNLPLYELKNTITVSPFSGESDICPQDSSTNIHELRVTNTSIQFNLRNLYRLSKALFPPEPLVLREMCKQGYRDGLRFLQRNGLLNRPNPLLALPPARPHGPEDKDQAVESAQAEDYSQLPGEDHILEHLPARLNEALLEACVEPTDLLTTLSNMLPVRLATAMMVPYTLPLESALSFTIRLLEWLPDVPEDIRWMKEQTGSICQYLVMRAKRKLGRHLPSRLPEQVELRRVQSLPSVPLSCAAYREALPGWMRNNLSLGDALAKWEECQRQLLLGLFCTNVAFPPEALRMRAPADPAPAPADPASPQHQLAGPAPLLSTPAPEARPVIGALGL
substance,measurement,value
PEDF (from UniProt P36955),Kd,3 nM
